According to patent US20120207760A1:

Legend:
Details in all cases: remark: other sources report otherwise
[1] = target: Hemagglutinin of influenza A/Japan/305/57 (H2N2), on inactivated whole virions (Influenza A virus A/Japan/305/1957 (H2N2)), P03451; assay: ELISA, B cell culture supernatant on inactivated whole virions
[2] = target: recombinant soluble homotrimeric HA of A/common magpie/Hong Kong/5052/07 (H5N1) (Influenza A virus A/common magpie/Hong Kong/5052/07 (H5N1)); assay: microarray, BCC supernatant IgG, trimeric HA
[3] = target: recombinant soluble homotrimeric HA of A/Common magpie/Hong Kong/5052/07 - H5N1 (Influenza A virus A/common magpie/Hong Kong/5052/2007 (H5N1)); assay: micro-array; captured IgG, V5-tagged trimeric HA

Binder	Trimeric HA Binding: RLU [3]	other results
TCN-551 (5243_D01) (antibody, V domains shown) VH: EVQLVQSGSEVKKPGESLKISCKGSGYSFSNYWIGWVRHMPGKGLEWMGIIYPGDSDTRYSPSFQGQVTMSADKSSSTVYLQWSSLKASDTAIYYCARRGGHSFGYGSGGDTHSEFDSWGQGTLVTVSS VL: QSVLTQSPSVSAAPGQKVTISCSGSDSNIGDYFVCWYQHLPGKPPQLLIYENNKRPSGIPDRFSGSKSGTSATLGITGIQTGDEADYYCATWDGSLSAWVFGGGTKLTVL		OD450 [1]: 0.19 OD450
TCN-533 (5256_A17) (antibody, V domains shown) VH: QVQLVQSGADVKKPGSSVTVSCKASGGSFSNYGINWVRQAPGQGLEWMGGIIPLINAPNYAPKFQGRVTITADMFSNIVSLQLTSLRTDDTAVYYCARRKMTTAIDYWGQGTLVTVSS VL: QPVLSQPPSASASLGASVTLTCTLSSGFDNYQVAWYQQRPGKGPRFVMRVGNGGNVASKGDGIPDRFSVSGSGLNRYLTIKNIQEDDESDYYCGADHGSGNNFVSPYVFGGGTKLTVL		Trimeric HA Binding: RLU [2]: 44500 RLU
TCN-539 (5056_A08) (antibody, V domains shown) VH: QVQLVESGGGVVQPGRSLRLSCAASEITFITYAMHWVRQAPGKGLEWVALISDDGSNKFYADSVKGRFTISRDNSKNTLYLQMNSLRAEDTAAYYCAREGVYFDSGTYRGYFDYWGQETLVTVSS VL: EIVLTQSPATLSLSPGERATLSCRASQSVSSYLAWYQQKPGQAPRLLIYDASNRATGIPARFSGSGSGTDFTLTISSLEPEDFAVYYCQQRSHWPPITFGQGTRLEIK	1440 RLU	
TCN-542 (5079_A16) (antibody, V domains shown) VH: QVQLQESGPGLVKPSQTLSLTCTVSGGSISSGNYYWNWVRQHPGKGLEWIGYIYYRGSTFYNPSLKSRVTISIDTSKNQFSLRLSSVTAADTAVYYCAKDTRSSLDNYQYGMDVWGQGTTVTVSS VL: QTVVTQEPSLTVSPGGTVTLTCASSTGAVTSSYFPNWFQQKPGQAPRPLIYSTTIRHSWTPARFSGSLLGGKAALTLSGVQPEDEADYYCLLYSGGDPVAFGGGTKLTVL	1670 RLU	
